Measured values taken from the supplement of paper PMC10567573.

B1: PTPN9 (parent)
chain: TQHLPRECLPENLGGYVKIDLATW
B2: KRT13 (parent)
chain: TSSASVTTTSNASGRRTSDVRRP

Variants of: B1
Test: protein stability index of a GFP-peptide fusion (GPS, HEK-293T) (PSI 1-6); higher = more stable
Conditions: c terminus: a fixed tail appended
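Note: lentivirally expressed fusions sorted by FACS into six bins by GFP to DsRed ratio, PSI derived from sequencing read proportions per bin multiplied by bin number.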

Protein stability index, by site and new letter:
I19: F 1.79, L 2.06, W 2.46, Q 3.04, A 2.86
P10: N 2.23, V 1.82, D 1.88, Q 1.6, I 1.61, S 2.49, Y 1.68
G15: L 1.73, N 1.93, W 2.88, T 1.35, C 2.36, S 1.92, F 2.44
T23: S 2.02, P 1.99, K 2.38, V 3.6
C8: L 1.8, A 2.16, V 2.02, S 2.04, T 2.19, Q 2.29, M 1.81, I 1.7, G 1.78, D 2.48, R 1.69, N 2.15
E7: R 2.5, F 1.74, H 1.85, S 1.94, D 2.2, C 2.49, N 1.86, G 1.62, L 2.25, V 2.22, K 1.52
Q2: C 2.11, M 1.47, F 1.31, R 1.76, A 1.84, Y 2.48, I 1.96, S 1.73
Y16: N 3.17, T 3.02, M 2.35, C 2.48, S 2.62, K 3.1, E 3.37, H 2.41, G 2.87, R 2.44
N12: C 1.92, M 1.96, A 2.41, Y 2.52, D 1.93, I 1.79, L 1.76, T 1.82, F 1.55, H 1.92
L21: N 2.63, Q 2.96
E11: S 2.04, L 2.73, P 1.63, H 1.48, G 1.41, T 1.45, D 1.84
K18: W 2.43, V 3.3, D 3.51, Q 1.97, Y 1.91, T 1.91, R 1.4, E 1.93, M 1.73
T1: M 1.57, L 1.67, P 2.07, K 1.88, D 2.51, C 1.51, N 2.18
R6: Q 2.31, F 1.81, G 2.51, L 1.49, P 2.24, T 2.2, Y 1.69, N 1.98
L9: W 1.9, F 1.94, V 1.65, R 1.77
V17: L 1.48, H 2.29, P 2.2, W 1.89, G 2.57
L13: G 1.98, S 2.41, P 2.17, R 2.43, E 3.46, Q 2.2, N 2.58, Y 1.91
P5: T 1.92, N 2.04, A 2.18, R 2.45, L 2.83
W24: R 2.61, M 2.05, H 2.66, S 3.06, C 2.28, I 1.94, A 2.84, D 3.88, P 2.86, E 4.07, K 3.59
D20: G 1.78, W 3.09, Y 2.68, I 2.01, K 1.94, H 2.68, Q 1.6, A 2.07, C 1.94
H3: K 2.03, W 1.65, C 1.91, T 2.45, Y 1.66
A22: V 2.08, S 1.72, G 1.64, D 3.18, W 2.09, C 1.92, F 2.43, R 1.23
L4: D 2.31, N 2, T 1.98, K 2.1, M 2.38
G14: M 2.03, Q 1.96, C 1.55, Y 2.45, V 2.35, H 1.91

Variants of: B2
Test: as above
Conditions: c terminus: native

Protein stability index, by site and new letter:
N11: K 1.86, Y 3.34, V 1.98, P 1.12, G 2.7, L 2.98, I 1.08, D 1.71, T 2.74, F 2.92, A 3.09, R 2.36, E 3.41, H 1.8
V6: G 2.71, K 2.39, N 2.44, F 1.93, L 2.31, D 2.88, P 2.51, Q 1.69, A 2.14, T 3.08, R 1.97, S 1.09, C 4.46
S2: Y 2.08, N 3.25, T 2.82, L 2.02, E 3.22, F 2.04, D 2.46, V 3.9, K 3.48, G 2.56, Q 1.06, P 3.07
T7: Y 4.47, I 1.93, F 2.24, G 1.17, W 3.38, K 2.19, L 2.23, A 2.46, Q 1.3, H 2.54, M 3.08, P 1.66, N 1.45, R 2.97, D 3.4
T1: Y 3.12, Q 2.54, I 2.25, D 2.46, V 2.42, E 2.33, N 1.34, F 4.09, H 2.22, W 2.43, A 3.56
T9: G 1.73, E 2.58, H 3.88, D 2.05, P 1.97, K 2.19, C 1.54, V 2.72, F 2.13, N 1.81
G14: C 1.75, E 2.97, D 1.88, I 2.46, A 3.4
T8: P 1.64, E 3.31, K 3.7, G 2.26, F 2.35, Y 3.44, Q 3.25, D 2.08, A 3.85, N 2.98
A12: S 2.19, C 3.03, P 2.25, F 3.48, D 3.12, H 3.71, L 2.53, I 2.81
S10: H 2.48, C 4.58, T 1.6, V 2.99, Y 1.98, F 2.96, E 2.03, Q 2.12, D 2.05, P 2.11
A4: I 3.97, D 3.4, Y 2.51, W 2.44, N 2.16, G 2.25, T 2.02, K 3.21, P 1.7, H 2.6, L 3.6, S 1.03, Q 2.03, E 2.39
S3: C 1.96, G 3.79, Y 1.46, E 2.8, W 1.65, A 2.61, Q 2.19, T 1.81, D 2.57, L 1.99, V 1.93, I 2.32, K 2.86, H 2.54
S13: D 1.45, Q 1.37, L 2.47, E 1.7, K 1.94, P 2.41, W 1.04, A 2.97, T 5.7, G 1.7, R 1.4, V 3.04
S5: N 2.44, A 2.49, Q 2.59, D 2.48, T 4.31, C 3.15, H 3.91, K 1.9, I 2.37, G 2.79, F 3.27, M 1.88, E 3.07
